Measured values from publication PMC5036783 (Biophysics, 2011).

What was measured:
Assay in all cases: pull-down; Ni-NTA resin holding histidine tagged fusion pHtrII from cell-free translation; untagged ppR 0.8 mM and pHtrII 0.08 mM mixed in buffer S (300 mM NaCl, 50 mM MES, 5 mM imidazole, pH 6.5) with 0.1% DDM, 1 h, room temperature; eluted ppR read by absorbance at 498 nm
Details in all cases: one partner purified
[1] = molecular target: T1, glutathione S-transferase-tagged pHtrII 1-114 (cell-free) (Natronomonas pharaonis, UniProt P42259 1-114)
T1 sequence (looked up): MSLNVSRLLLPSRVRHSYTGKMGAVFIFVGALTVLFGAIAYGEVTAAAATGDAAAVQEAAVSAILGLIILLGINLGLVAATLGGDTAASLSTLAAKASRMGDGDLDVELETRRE

[2] = molecular target: T2, thioredoxin-tagged pHtrII 1-114 (cell-free) (Natronomonas pharaonis, UniProt P42259 1-114)
T2 sequence (looked up): T1 sequence (looked up)

[3] = molecular target: T3, green fluorescent protein-tagged pHtrII 1-114 (cell-free) (Natronomonas pharaonis, UniProt P42259 1-114)
T3 sequence (looked up): T1 sequence (looked up)

binding activity relative to pHtrII expressed in E. coli [1]: ~50%
binding activity relative to pHtrII expressed in E. coli [2]: ~50%
binding activity relative to pHtrII expressed in E. coli [3]: ~50%
B1: pharaonis phoborhodopsin (ppR), untagged (natural protein, Natronomonas pharaonis, UniProt P42196 1-239, looked up)
chain: MVGLTTLFWLGAIGMLVGTLAFAWAGRDAGSGERRYYVTLVGISGIAAVAYVVMALGVGWVPVAERTVFAPRYIDWILTTPLIVYFLGLLAGLDSREFGIVITLNTVVMLAGFAGAMVPGIERYALFGMGAVAFLGLVYYLVGPMTESASQRSSGIKSLYVRLRNLTVILWAIYPFIWLLGPPGVALLTPTVDVALIVYLDLVTKVGFGFIALDAAATLRAEHGESLAGVDTDAPAVAD
